Assay [1] has as its target T1, IL-20RA/IL-20RB heterodimeric receptor (human), on cells (human, UniProt Q9UHF4 30-553; Q6UXL0 30-311).
T1 sequence 1: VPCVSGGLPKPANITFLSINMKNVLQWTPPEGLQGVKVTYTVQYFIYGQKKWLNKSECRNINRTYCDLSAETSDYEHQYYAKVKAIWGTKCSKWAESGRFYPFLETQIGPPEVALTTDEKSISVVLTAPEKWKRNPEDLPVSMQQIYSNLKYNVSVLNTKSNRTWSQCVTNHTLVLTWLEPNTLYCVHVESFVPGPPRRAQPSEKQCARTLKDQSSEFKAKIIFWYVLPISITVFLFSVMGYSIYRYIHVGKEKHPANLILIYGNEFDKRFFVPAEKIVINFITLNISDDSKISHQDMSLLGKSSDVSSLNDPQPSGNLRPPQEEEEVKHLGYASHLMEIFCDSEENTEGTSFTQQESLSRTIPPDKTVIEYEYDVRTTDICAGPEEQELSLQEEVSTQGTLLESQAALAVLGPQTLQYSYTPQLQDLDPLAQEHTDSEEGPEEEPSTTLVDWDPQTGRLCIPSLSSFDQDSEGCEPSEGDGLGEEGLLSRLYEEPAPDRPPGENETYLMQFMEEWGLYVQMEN
T1 sequence 2: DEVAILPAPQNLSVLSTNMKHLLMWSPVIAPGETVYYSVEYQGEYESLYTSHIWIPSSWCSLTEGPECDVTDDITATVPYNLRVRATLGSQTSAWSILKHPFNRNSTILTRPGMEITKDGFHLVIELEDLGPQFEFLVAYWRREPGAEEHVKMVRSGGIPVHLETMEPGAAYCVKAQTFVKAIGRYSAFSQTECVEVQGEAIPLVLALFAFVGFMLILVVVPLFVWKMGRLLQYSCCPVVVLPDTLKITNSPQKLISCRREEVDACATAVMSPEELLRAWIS
Briefly: cell-based or functional assay.

For assay [2], the target named is T2, IL-20RA (human), on cells (human, UniProt Q9UHF4 30-553).
T2 construct: This id covers the subunit expressed alone on BHK or BaF3/KZ134 transfectants; It is also used for endogenous IL-20RA on human monocytic cells and in human lung tissue; also called ZcytoR7; IL-20RA only
T2 sequence: T1 sequence 1
Briefly: radiolabeled ligand binding on stably transfected BHK cells. The protocol:
(§1) The specificity and affinity of IL-20 for its receptor was determined using BHK cells stably transfected with IL-20RA, IL-20RB or both receptor subunits. […] Binding of ¹²⁵I-labeled IL-20 was eliminated in the presence of 100-fold excess of unlabeled IL-20 but not with 100-fold excess of the unrelated cytokine, IL-21.

The target of assay [3] is T3, IL-20RB (human), on cells (human, UniProt Q6UXL0 30-311).
T3 construct: This id covers the subunit expressed alone on BHK or BaF3/KZ134 transfectants; It is also used for endogenous IL-20RB on THP-1 cells; also called DIRS1; pDIRS1
T3 sequence: T1 sequence 2
Described as above. On the procedure: as §1

The target of assay [4] is T1, IL-20RA/IL-20RB heterodimeric receptor …. The experiment in a line: 125I-IL-20 binding on BHK cells expressing IL-20RA and IL-20RB. On the procedure:
as §1

This note sets out measurements from patent US20050136004A1 (ZymoGenetics, published 2005).

B1: human IL-20-Bv (purified mature recombinant human IL-20 produced in Baculovirus) (ligand)
chain: LKTLNLGSCVIATNLQEIRNGFSDIRGSVQAKDGNIDIRILRRTESLQDTKPANRCCLLRHLLRLYLDRVFKNYQTPDHYTLRKISSLANSFLTIKKDLRLCHAHMTCHCGEEAMKKYSQILSHFEKLEPQAAVVKALGELDILLQWMEETE
B1: in assay [1], the “Alamar Blue proliferation of BaF3/KZ134/IL-20RA/IL-20RB cells at 1 pM IL-20” value stood at 2 fold over background and the “Alamar Blue proliferation of BaF3/KZ134/IL-20RA/IL-20RB cells at 1 nM IL-20” value is ~30 fold over background.

B2: IL-20 (human IL-20, mature polypeptide; preparation or host not specified) (ligand)
chain: B1 chain
notes: also called Zcyto10; IL-20 protein
Regarding B2, the binding result in assay [2] and in assay [3] was “no binding” throughout. Moreover, the Kd in assay [4] was ~1.5 nM.

One may read the Kd as a measure of binding affinity in units of concentration.
